Results: publication PMC4372403, “Glycosylation of Phenolic Compounds by the Site-Mutated β-Galactosidase from Lactobacillus bulgaricus L3” (PLoS ONE, 2015)

Substrate: O=[N+]([O-])c1ccccc1O[C@@H]1O[C@H](CO)[C@H](O)[C@H](O)[C@H]1O
Experiment: purified protein
Format: biochemical, Lactobacillus delbrueckii
Conditions: 37°C, 10 min, oNPGal 0.5 to 50 mM, hydrolysis

B1: BgaL3 (β-galactosidase from Lactobacillus bulgaricus L3) (Lactobacillus delbrueckii subsp. bulgaricus) (protein)
chain: MSNKLVKEKRVDQADLAWLTDPEVYEVNTIPPHSDHESFQSQEELEEGKSSLVQSLDGDWLIDYAENGQGPVNFYAEDFDDSNFKSVKVPGNLELQGFGQPQYVNVQYPWDGSEEIFPPQIPSKNPLASYVRYFDLDEAFWDKEVSLKFDGAATAIYVWLNGHFVGYGEDSFTPSEFMVTKFLKKENNRLAVALYKYSSASWLEDQDFWRMSGLFRSVTLQAKPRLHLEDLKLTASLTDNYQKGKLEVEANIAYRLPNASFKLEVRDSEGDLVAEKLGPIRSEQLEFTLADLPVAAWSAEKPNLYQVRLYLYQAGSLLEVSRQEVGFRNFELKDGIMYLNGQRIVFKGANRHEFDSKLGRAITEEDMIWDIKTMKRSNINAVRCSHYPNQSLFYRLCDKYGLYVIDEANLESHGTWEKVGGHEDPSFNVPGDDQHWLGASLSRVKNMMARDKNHASILIWSLGNESYAGTVFAQMADYVRKADPTRVQHYEGVTHNRKFDDATQIESRMYVPAKVIEEYLTNKPAKPFISVEYAHAMGNSVGDLAAYTALEKYPHYQGGFIWDWIDQGLEKDGHLLYGGDFDDRPTDYEFCGNGLVFADRTESPKLANVKALYANLKLEVKDGQLFLKNDNLFTNSSSYYFLTSLLVDGKLTYQSRPLTFGLEPGESGTFALPWPEVADEKGEVVYRVTAHLKEDLPWADEGFTVAEAEEVAQKLPEFKPEGRPDLVDSDYNLGLKGNNFQILFSKVKGWPVSLKYAGREYLKRLPEFTFWRALTDNDRGAGYGYDLARWENAGKYARLKDISCEVKEDSVLVKTAFTLPVALKGDLTVTYEVDGRGKIAVTADFPGAEEAGLLPAFGLNLALPKELTDYRYYGLGPNESYPDRLEGNYLGIYQGAVKKNFSPYLRPQETGNRSKVRWYQLFDEKGGLEFTANGADLNLSALPYSAAQIEAADHAFELTNNYTWVRALSAQMGVGGDDSWGQKVHPEFCLDAQKARQLRLVIQPLLLK
Km: 1.38 mM | Vmax: 6530 µmol/min/mg | kcat: 12500 s⁻¹ | kcat/Km: 9.06e+06 M⁻¹ s⁻¹

B2: BgaL3 (β-galactosidase from Lactobacillus bulgaricus L3) (Lactobacillus delbrueckii subsp. bulgaricus; W980F) (protein)
chain: MSNKLVKEKRVDQADLAWLTDPEVYEVNTIPPHSDHESFQSQEELEEGKSSLVQSLDGDWLIDYAENGQGPVNFYAEDFDDSNFKSVKVPGNLELQGFGQPQYVNVQYPWDGSEEIFPPQIPSKNPLASYVRYFDLDEAFWDKEVSLKFDGAATAIYVWLNGHFVGYGEDSFTPSEFMVTKFLKKENNRLAVALYKYSSASWLEDQDFWRMSGLFRSVTLQAKPRLHLEDLKLTASLTDNYQKGKLEVEANIAYRLPNASFKLEVRDSEGDLVAEKLGPIRSEQLEFTLADLPVAAWSAEKPNLYQVRLYLYQAGSLLEVSRQEVGFRNFELKDGIMYLNGQRIVFKGANRHEFDSKLGRAITEEDMIWDIKTMKRSNINAVRCSHYPNQSLFYRLCDKYGLYVIDEANLESHGTWEKVGGHEDPSFNVPGDDQHWLGASLSRVKNMMARDKNHASILIWSLGNESYAGTVFAQMADYVRKADPTRVQHYEGVTHNRKFDDATQIESRMYVPAKVIEEYLTNKPAKPFISVEYAHAMGNSVGDLAAYTALEKYPHYQGGFIWDWIDQGLEKDGHLLYGGDFDDRPTDYEFCGNGLVFADRTESPKLANVKALYANLKLEVKDGQLFLKNDNLFTNSSSYYFLTSLLVDGKLTYQSRPLTFGLEPGESGTFALPWPEVADEKGEVVYRVTAHLKEDLPWADEGFTVAEAEEVAQKLPEFKPEGRPDLVDSDYNLGLKGNNFQILFSKVKGWPVSLKYAGREYLKRLPEFTFWRALTDNDRGAGYGYDLARWENAGKYARLKDISCEVKEDSVLVKTAFTLPVALKGDLTVTYEVDGRGKIAVTADFPGAEEAGLLPAFGLNLALPKELTDYRYYGLGPNESYPDRLEGNYLGIYQGAVKKNFSPYLRPQETGNRSKVRWYQLFDEKGGLEFTANGADLNLSALPYSAAQIEAADHAFELTNNYTWVRALSAQMGVGGDDSFGQKVHPEFCLDAQKARQLRLVIQPLLLK
Km: 6.40 mM | Vmax: 640 µmol/min/mg | kcat: 1240 s⁻¹ | kcat/Km: 194000 M⁻¹ s⁻¹
